# System: Escherichia coli TOP10
# Assay: shrunken log2 fold change of peptide-encoding DNA abundance (4.5 h post-induction vs induction); higher = less antimicrobial activity (less host growth inhibition)
# Conditions: time post-induction: 4.5 h; library: site-saturation at positions 5, 18, 19, 20
# 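Note: peptides expressed intracellularly from a pBAD plasmid library in pooled LB shake-flask culture, induced with 0.3% L-arabinose, DNA abundance read by NGS, three biological replicates, DESeq2 with apeglm shrinkage.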
row,Sequence,shrunken log2 fold change
1,RRIRLRPPRLPRPRPRPFKCPRP,2.83
2,RRIRPRPPRLPRPRPRPLWVPRP,0.165
3,RRIRQRPPRLPRPRPRPDIMPRP,-0.136
4,RRIRFRPPRLPRPRPRPVIWPRP,-0.0895
5,RRIRGRPPRLPRPRPRPDVHPRP,0.867
6,RRIRTRPPRLPRPRPRPALVPRP,0.0324
7,RRIRNRPPRLPRPRPRPMHEPRP,0.0425
8,RRIRYRPPRLPRPRPRPYTAPRP,0.00143
9,RRIRTRPPRLPRPRPRPRDAPRP,0.881
10,RRIRIRPPRLPRPRPRPNVNPRP,-0.594
11,RRIRPRPPRLPRPRPRPFAPPRP,0.14
12,RRIRCRPPRLPRPRPRPAHRPRP,0.392
13,RRIRFRPPRLPRPRPRPAHWPRP,0.539
14,RRIRKRPPRLPRPRPRPNFEPRP,0.0868
15,RRIRDRPPRLPRPRPRPHTRPRP,0.013
16,RRIRLRPPRLPRPRPRPKFKPRP,-0.147
17,RRIRRRPPRLPRPRPRPGEIPRP,0.321
18,RRIRRRPPRLPRPRPRPYCYPRP,-0.101
19,RRIRERPPRLPRPRPRPQLSPRP,0.1
20,RRIRTRPPRLPRPRPRPRQVPRP,-0.0471
21,RRIRTRPPRLPRPRPRPWPQPRP,0.323
22,RRIRNRPPRLPRPRPRPRQWPRP,0.299
23,RRIRHRPPRLPRPRPRPQHFPRP,0.0728
24,RRIRRRPPRLPRPRPRPMDLPRP,0.0641
25,RRIRSRPPRLPRPRPRPKPIPRP,0.271

row,Sequence,shrunken log2 fold change
1,RRIRIRPPRLPRPRPRPLRWPRP,1.02
2,RRIRHRPPRLPRPRPRPEWFPRP,-0.0468
3,RRIRRRPPRLPRPRPRPLFEPRP,0.245
4,RRIRERPPRLPRPRPRPFGDPRP,-0.0107
5,RRIRDRPPRLPRPRPRPEWSPRP,0.364
6,RRIRPRPPRLPRPRPRPSYSPRP,-0.149
7,RRIRWRPPRLPRPRPRPGCAPRP,0.948
8,RRIRGRPPRLPRPRPRPFSDPRP,0.165
9,RRIRARPPRLPRPRPRPMDGPRP,0.211
10,RRIRQRPPRLPRPRPRPRKIPRP,-0.064
11,RRIRWRPPRLPRPRPRPTHRPRP,0.8
12,RRIRKRPPRLPRPRPRPSEPPRP,0.249
13,RRIRKRPPRLPRPRPRPSGEPRP,0.0144
14,RRIRRRPPRLPRPRPRPTKEPRP,-0.0782
15,RRIRGRPPRLPRPRPRPGLYPRP,0.341
16,RRIRERPPRLPRPRPRPHTSPRP,-0.122
17,RRIRYRPPRLPRPRPRPHIAPRP,-0.408
18,RRIRLRPPRLPRPRPRPPKQPRP,0.0446
19,RRIRHRPPRLPRPRPRPEGVPRP,0.0659
20,RRIRDRPPRLPRPRPRPNMIPRP,-0.0358
21,RRIRRRPPRLPRPRPRPDIHPRP,-0.122
22,RRIRYRPPRLPRPRPRPYHWPRP,-0.115
23,RRIRKRPPRLPRPRPRPYNRPRP,-0.0322
24,RRIRKRPPRLPRPRPRPMMVPRP,0.0826
25,RRIRVRPPRLPRPRPRPDVFPRP,-0.0779

row,Sequence,shrunken log2 fold change
1,RRIRPRPPRLPRPRPRPRDFPRP,0.317
2,RRIRDRPPRLPRPRPRPFVHPRP,-0.0617
3,RRIRGRPPRLPRPRPRPHSKPRP,0.205
4,RRIRHRPPRLPRPRPRPYMCPRP,-0.536
5,RRIRNRPPRLPRPRPRPDIAPRP,-0.0447
6,RRIRMRPPRLPRPRPRPPYIPRP,-0.0556
7,RRIRQRPPRLPRPRPRPYIEPRP,-0.45
8,RRIRVRPPRLPRPRPRPSCCPRP,-0.133
9,RRIRGRPPRLPRPRPRPPLVPRP,0.813
10,RRIRPRPPRLPRPRPRPLKLPRP,-0.267
11,RRIRFRPPRLPRPRPRPDVNPRP,0.00585
12,RRIRARPPRLPRPRPRPNEHPRP,0.0215
13,RRIRIRPPRLPRPRPRPLEYPRP,-0.293
14,RRIRRRPPRLPRPRPRPVNQPRP,0.129
15,RRIRERPPRLPRPRPRPTPAPRP,0.239
16,RRIRMRPPRLPRPRPRPQSHPRP,0.083
17,RRIRFRPPRLPRPRPRPCACPRP,-0.0607
18,RRIRYRPPRLPRPRPRPNISPRP,-0.513
19,RRIRSRPPRLPRPRPRPWRHPRP,-0.106
20,RRIRCRPPRLPRPRPRPPGKPRP,0.141
21,RRIRLRPPRLPRPRPRPNMIPRP,-0.571
22,RRIRYRPPRLPRPRPRPWAAPRP,-0.0914
23,RRIRNRPPRLPRPRPRPNKRPRP,-0.221
24,RRIRSRPPRLPRPRPRPEWSPRP,0.233
25,RRIRTRPPRLPRPRPRPVQKPRP,0.296

# From the supplement of paper PMC9112550, “Optimization of the antimicrobial peptide Bac7 by deep mutational scanning” (BMC Biology, 2022)
